Results from PMC3735830 (Nature structural & molecular biology, 2013).

Experiments:
Experiment in all cases: cryo-EM structure
Orc1 = target: T1, Orc1 (S. cerevisiae, UniProt P54784 1-914)
T1 sequence: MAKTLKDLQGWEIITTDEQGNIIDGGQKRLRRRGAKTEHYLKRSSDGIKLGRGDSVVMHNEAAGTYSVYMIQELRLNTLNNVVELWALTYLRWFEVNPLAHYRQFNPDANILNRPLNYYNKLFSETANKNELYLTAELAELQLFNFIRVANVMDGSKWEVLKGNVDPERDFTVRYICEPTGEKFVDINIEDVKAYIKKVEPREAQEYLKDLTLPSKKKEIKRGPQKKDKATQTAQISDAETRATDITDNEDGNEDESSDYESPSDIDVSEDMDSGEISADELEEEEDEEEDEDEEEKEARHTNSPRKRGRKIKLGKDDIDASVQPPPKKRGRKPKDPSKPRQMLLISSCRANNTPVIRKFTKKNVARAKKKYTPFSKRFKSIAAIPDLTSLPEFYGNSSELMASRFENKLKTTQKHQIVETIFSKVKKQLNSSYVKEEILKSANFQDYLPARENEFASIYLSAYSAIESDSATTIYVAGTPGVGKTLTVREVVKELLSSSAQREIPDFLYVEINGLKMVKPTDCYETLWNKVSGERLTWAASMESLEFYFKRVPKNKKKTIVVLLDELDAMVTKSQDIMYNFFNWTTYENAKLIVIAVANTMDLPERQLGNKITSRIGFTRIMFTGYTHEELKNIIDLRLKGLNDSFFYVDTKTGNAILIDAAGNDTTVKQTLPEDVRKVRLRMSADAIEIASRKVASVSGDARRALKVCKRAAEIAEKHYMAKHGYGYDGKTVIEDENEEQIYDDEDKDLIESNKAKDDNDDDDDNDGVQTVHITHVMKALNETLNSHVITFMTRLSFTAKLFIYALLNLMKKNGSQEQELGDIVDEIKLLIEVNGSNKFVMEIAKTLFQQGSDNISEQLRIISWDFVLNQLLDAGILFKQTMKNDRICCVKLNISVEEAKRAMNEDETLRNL

Orc3 = target: T2, Orc3 (S. cerevisiae, UniProt P54790 1-616)
T2 sequence: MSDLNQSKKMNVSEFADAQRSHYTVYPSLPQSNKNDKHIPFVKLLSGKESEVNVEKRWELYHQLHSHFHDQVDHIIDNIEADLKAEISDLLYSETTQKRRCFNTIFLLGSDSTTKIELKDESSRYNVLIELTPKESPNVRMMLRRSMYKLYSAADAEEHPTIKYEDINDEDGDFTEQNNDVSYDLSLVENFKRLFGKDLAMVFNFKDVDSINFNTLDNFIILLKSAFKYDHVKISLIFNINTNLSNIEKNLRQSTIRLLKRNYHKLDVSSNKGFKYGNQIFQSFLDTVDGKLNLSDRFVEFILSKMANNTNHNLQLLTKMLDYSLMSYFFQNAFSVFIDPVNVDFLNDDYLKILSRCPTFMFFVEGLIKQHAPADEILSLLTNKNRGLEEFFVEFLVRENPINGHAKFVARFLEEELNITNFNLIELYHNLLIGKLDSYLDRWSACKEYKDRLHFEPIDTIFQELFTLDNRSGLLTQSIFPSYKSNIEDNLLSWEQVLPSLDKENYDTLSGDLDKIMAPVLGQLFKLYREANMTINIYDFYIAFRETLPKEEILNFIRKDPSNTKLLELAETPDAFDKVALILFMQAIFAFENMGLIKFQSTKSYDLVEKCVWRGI

Mcm6 = Mcm6 (S. cerevisiae, UniProt P53091 1-1017)
Chain of Mcm6 (P53091 whole entry): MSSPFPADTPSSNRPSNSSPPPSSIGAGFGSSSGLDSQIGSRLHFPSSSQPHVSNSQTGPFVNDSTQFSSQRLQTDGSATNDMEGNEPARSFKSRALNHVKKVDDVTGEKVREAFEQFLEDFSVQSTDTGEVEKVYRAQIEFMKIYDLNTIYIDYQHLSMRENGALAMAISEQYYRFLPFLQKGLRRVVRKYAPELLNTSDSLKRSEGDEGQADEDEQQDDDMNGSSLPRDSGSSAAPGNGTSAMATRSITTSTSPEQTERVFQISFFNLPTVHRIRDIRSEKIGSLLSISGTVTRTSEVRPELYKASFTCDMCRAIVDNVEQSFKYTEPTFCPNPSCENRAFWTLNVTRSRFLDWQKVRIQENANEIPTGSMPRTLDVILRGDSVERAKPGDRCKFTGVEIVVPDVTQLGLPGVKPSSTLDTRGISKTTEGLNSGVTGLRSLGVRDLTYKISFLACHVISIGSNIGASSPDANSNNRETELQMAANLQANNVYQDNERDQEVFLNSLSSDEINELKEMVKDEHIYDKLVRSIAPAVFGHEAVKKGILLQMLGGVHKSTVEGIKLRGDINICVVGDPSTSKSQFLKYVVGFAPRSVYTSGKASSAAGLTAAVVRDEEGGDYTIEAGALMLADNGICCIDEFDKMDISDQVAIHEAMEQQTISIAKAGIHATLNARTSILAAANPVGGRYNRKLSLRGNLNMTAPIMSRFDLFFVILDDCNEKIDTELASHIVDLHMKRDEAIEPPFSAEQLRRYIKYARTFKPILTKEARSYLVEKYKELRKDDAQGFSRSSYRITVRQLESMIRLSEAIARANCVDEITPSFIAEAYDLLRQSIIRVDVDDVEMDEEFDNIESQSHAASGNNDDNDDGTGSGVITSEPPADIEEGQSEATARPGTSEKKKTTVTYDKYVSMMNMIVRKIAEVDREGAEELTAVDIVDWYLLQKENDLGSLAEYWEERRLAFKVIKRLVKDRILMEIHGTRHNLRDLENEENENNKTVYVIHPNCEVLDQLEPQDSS

Row | Binder | binding result (Orc1) | binding result (Orc3) | binding result (Mcm6)
1 | Orc4 (natural protein) MTISEARLSPQVNLLPIKRHSNEEVEETAAILKKRTIDNEKCKDSDPGFGSLQRRLLQQLYGTLPTDEKIIFTYLQDCQQEIDRIIKQSIIQKESHSVILVGPRQSYKTYLLDYELSLLQQSYKEQFITIRLNGFIHSEQTAINGIATQLEQQLQKIHGSEEKIDDTSLETISSGSLTEVFEKILLLLDSTTKTRNEDSGEVDRESITKITVVFIFDEIDTFAGPVRQTLLYNLFDMVEHSRVPVCIFGCTTKLNILEYLEKRVKSRFSQRVIYMPQIQNLDDMVDAVRNLLTVRSEISPWVSQWNETLEKELSDPRSNLNRHIRMNFETFRSLPTLKNSIIPLVATSKNFGSLCTAIKSCSFLDIYNKNQLSNNLTGRLQSLSDLELAILISAARVALRAKDGSFNFNLAYAEYEKMIKAINSRIPTVAPTTNVGTGQSTFSIDNTIKLWLKKDVKNVWENLVQLDFFTEKSAVGLRDNATAAFYASNYQFQGTMIPFDLRSYQMQIILQELRRIIPKSNMYYSWTQL | binds | – | –
2 | Cdc6 (natural protein) MSAIPITPTKRIRRNLFDDAPATPPRPLKRKKLQFTDVTPESSPEKLQFGSQSIFLRTKALLQKSSELVNLNSSDGALPARTAEYEQVMNFLAKAISEHRSDSLYITGPPGTGKTAQLDMIIRQKFQSLPLSLSTPRSKDVLRHTNPNLQNLSWFELPDGRLESVAVTSINCISLGEPSSIFQKIFDSFQDLNGPTLQIKNMQHLQKFLEPYHKKTTFVVVLDEMDRLLHANTSETQSVRTILELFLLAKLPTVSFVLIGMANSLDMKDRFLSRLNLDRGLLPQTIVFQPYTAEQMYEIVIQKMSSLPTIIFQPMAIKFAAKKCAGNTGDLRKLFDVLRGSIEIYELEKRFLLSPTRGSLNSAQVPLTPTTSPVKKSYPEPQGKIGLNYIAKVFSKFVNNNSTRTRIAKLNIQQKLILCTIIQSLKLNSDATIDESFDHYIKAITKTDTLAPLQRNEFLEICTILETCGLVSIKKTKCKGKTKRFVDKIDVDLDMREFYDEMTKISILKPFLH | binds | binds | –
3 | Cdt1 (natural protein) MSGTANSRRKEVLRVPVIDLNRVSDEEQLLPVVRAILLQHDTFLLKNYANKAVLDALLAGLTTKDLPDTSQGFDANFTGTLPLEDDVWLEQYIFDTDPQLRFDRKCRNESLCSIYSRLFKLGLFFAQLCVKSVVSSAELQDCISTSHYATKLTRYFNDNGSTHDGADAGATVLPTGDDFQYLFERDYVTFLPTGVLTIFPCAKAIRYKPSTMATTDNSWVSIDEPDCLLFHTGTLLARWSQGMHTTSPLQIDPRANIVSLTIWPPLTTPISSKGEGTIANHLLEQQIKAFPKVAQQYYPRELSILRLQDAMKFVKELFTVCETVLSLNALSRSTGVPPELHVLLPQISSMMKRKIVQDDILKLLTIWSDAYVVELNSRGELTMNLPKRDNLTTLTNKSRTLAFVERAESWYQQVIASKDEIMTDVPAFKINKRRSSSNSKTVLSSKVQTKSSNANALNNSRYLANSKENFMYKEKMPDSQANLMDRLRERERRSAALLSQRQKRYQQFLAMKMTQVFDILFSLTRGQPYTETYLSSLIVDSLQDSNNPIGTKEASEILAGLQGILPMDISVHQVDGGLKVYRWNSLDKNRFSKLLQIHKSKQQD | – | – | binds
